Measurements from publication PMC4439256 (Experimental cell research, 2015).

How the values were obtained:
[1] = molecular target: HDHB N-terminus (aa 1-393) (human, UniProt Q8NG08 1-393); assay: pull-down
[2] = molecular target: HDHB helicase domain (aa 394-958) (human, UniProt Q8NG08 394-958); assay: pull-down
human DNA helicase B [3] = molecular target: T1, human DNA helicase B (human, UniProt Q8NG08 1-1087); assay: pull-down
human DNA helicase B [4] = molecular target: T1, human DNA helicase B; assay: co-IP

T1 sequence (Q8NG08 whole entry): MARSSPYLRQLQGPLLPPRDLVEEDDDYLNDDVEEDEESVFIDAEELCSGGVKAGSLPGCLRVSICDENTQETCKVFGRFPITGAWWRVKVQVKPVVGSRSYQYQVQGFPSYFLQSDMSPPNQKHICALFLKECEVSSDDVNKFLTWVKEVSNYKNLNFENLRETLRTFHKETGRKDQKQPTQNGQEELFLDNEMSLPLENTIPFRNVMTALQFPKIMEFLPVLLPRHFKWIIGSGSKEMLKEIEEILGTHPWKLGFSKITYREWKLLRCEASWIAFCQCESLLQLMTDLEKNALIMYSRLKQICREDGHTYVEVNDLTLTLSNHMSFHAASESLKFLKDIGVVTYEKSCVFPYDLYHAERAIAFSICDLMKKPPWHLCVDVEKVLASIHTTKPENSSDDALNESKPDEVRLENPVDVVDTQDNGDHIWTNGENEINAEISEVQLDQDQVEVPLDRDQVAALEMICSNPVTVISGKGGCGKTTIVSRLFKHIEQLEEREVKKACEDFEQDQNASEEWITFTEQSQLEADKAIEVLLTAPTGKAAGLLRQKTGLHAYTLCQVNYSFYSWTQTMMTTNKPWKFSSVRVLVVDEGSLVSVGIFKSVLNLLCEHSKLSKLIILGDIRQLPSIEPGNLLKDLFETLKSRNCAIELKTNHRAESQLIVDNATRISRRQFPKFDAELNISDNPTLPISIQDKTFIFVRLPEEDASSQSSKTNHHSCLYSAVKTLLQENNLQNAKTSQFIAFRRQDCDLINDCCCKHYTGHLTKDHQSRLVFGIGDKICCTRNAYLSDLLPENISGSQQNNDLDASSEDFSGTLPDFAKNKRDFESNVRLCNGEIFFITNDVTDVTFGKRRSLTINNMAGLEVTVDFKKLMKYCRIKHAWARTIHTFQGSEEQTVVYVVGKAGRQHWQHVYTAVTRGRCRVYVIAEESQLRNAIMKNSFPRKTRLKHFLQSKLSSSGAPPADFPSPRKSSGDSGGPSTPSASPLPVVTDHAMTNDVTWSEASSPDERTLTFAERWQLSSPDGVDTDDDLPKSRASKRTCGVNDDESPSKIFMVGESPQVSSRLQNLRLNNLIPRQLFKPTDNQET
Chain of HDHB N-terminus (aa 1-393) (Q8NG08 1-393): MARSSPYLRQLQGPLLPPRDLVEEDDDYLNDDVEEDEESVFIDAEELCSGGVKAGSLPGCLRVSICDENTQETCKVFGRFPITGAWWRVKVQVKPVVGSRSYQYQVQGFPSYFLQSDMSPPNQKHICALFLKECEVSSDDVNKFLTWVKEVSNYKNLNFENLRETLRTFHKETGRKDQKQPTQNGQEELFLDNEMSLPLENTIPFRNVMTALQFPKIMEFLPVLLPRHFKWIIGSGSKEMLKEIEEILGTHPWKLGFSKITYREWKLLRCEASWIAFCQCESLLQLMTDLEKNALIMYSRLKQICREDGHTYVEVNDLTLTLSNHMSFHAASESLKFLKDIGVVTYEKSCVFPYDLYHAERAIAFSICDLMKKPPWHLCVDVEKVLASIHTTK
Chain of HDHB helicase domain (aa 394-958) (Q8NG08 394-958): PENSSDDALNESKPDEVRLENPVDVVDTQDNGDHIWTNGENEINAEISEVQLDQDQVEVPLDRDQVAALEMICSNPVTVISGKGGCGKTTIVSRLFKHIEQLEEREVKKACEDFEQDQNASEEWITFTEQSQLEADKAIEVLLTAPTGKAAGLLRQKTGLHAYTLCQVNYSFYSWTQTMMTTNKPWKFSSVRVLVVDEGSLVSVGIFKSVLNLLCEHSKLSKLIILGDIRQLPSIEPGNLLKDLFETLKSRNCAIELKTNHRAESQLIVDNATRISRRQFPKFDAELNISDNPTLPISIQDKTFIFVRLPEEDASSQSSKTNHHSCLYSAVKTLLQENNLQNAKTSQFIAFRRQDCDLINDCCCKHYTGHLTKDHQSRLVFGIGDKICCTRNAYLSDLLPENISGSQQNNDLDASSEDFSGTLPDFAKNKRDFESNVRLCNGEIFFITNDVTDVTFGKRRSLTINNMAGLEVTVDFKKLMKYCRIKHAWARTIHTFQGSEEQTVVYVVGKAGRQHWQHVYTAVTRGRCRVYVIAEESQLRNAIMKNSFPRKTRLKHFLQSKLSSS

Row | binding result [1] | binding result [2] | binding result (human DNA helicase B [3]) | binding result (human DNA helicase B [4]) | Binder
1 | binds | binds | binds |  | GST-tagged Cdc45N (1-303) (domain or fragment, human, UniProt O75419 1-303, looked up) MFVSDFRKEFYEVVQSQRVLLFVASDVDALCACKILQALFQCDHVQYTLVPVSGWQELETAFLEHKEQFHYFILINCGANVDLLDILQPDEDTIFFVCDTHRPVNVVNVYNDTQIKLLIKQDDDLEVPAYEDIFRDEEEDEEHSGNDSDGSEPSEKRTRLEEEIVEQTMRRRQRREWEARRRDILFDYEQYEYHGTSSAMVMFELAWMLSKDLNDMLWWAIVGLTDQWVQDKITQMKYVTDVGVLQRHVSRHNHRNEDEENTLSVDCTRISFEYDLRLVLYQHWSLHDSLCNTSYTAARFKLW
2 |  |  |  | binds | His-Cdc45 (natural protein, human, UniProt O75419 1-566, looked up) MFVSDFRKEFYEVVQSQRVLLFVASDVDALCACKILQALFQCDHVQYTLVPVSGWQELETAFLEHKEQFHYFILINCGANVDLLDILQPDEDTIFFVCDTHRPVNVVNVYNDTQIKLLIKQDDDLEVPAYEDIFRDEEEDEEHSGNDSDGSEPSEKRTRLEEEIVEQTMRRRQRREWEARRRDILFDYEQYEYHGTSSAMVMFELAWMLSKDLNDMLWWAIVGLTDQWVQDKITQMKYVTDVGVLQRHVSRHNHRNEDEENTLSVDCTRISFEYDLRLVLYQHWSLHDSLCNTSYTAARFKLWSVHGQKRLQEFLADMGLPLKQVKQKFQAMDISLKENLREMIEESANKFGMKDMRVQTFSIHFGFKHKFLASDVVFATMSLMESPEKDGSGTDHFIQALDSLSRSNLDKLYHGLELAKKQLRATQQTIASCLCTNLVISQGPFLYCSLMEGTPDVMLFSRPASLSLLSKHLLKSFVCSTKNRRCKLLPLVMAAPLSMEHGTVTVVGIPPETDSSDRKNFFGRAFEKAAESTSSRMLHNHFDLSVIELKAEDRSKFLDALISLLS
